US20110098224A1, “PROTEIN KINASE C PEPTIDE MODULATORS OF ANGIOGENESIS” (priority 2005, published 2011)

Experiments:
[1] = Topical distribution of radiolabeled TAT peptide after instillation to rabbit eyes; assay type: in vivo; details: rabbit eye
Protocol: Radiolabeled TAT peptide [^14C]-YGXaaRKKRRQRRR (SEQ ID NO:19) (10 μCi) was applied in 5 instillations to each eye (50 μCi total—4 rabbits, 2 eyes each, n=8 eyes, 3 mg total applied to each eye). Each application was 1 hour apart, animals sacrificed 15 minutes after last application. Tissue samples were taken and assayed to determine topical distribution.

new vessel growth = details: rats, given systemically; cited from earlier work
[2] = Stability testing of peptide variants (scored); assay type: physicochemical
Source text: Stability, Miles Assay activity and corneal angiogenesis activities of a number of the peptides were investigated, and scored.

[3] = tested on: VEGF-induced vascular permeability; experiment: Miles assay (Evans Blue dye extravasation after intradermal VEGF with PKC modulator); assay type: in vivo; details: increasing VEGF doses
Protocol: In this study animals were injected intravenously with Evans Blue Dye. Animals were administered VEGF in increasing doses with a PKC modulator intradermally. […] The spots were removed, the dye extracted and quantities were measured spectrophotometrically.
A parent compound, βIV5-3 (SEQ ID NO:6) and a peptide variant—a linear version of the peptide, linear βI, having the sequence […] (SEQ ID NO:18)—were tested in the Miles assay.
The Miles assay was similarly performed with a βIPKC (βIV5-3 (SEQ ID NO:6)) inhibitor, a βIIPKC (βIIV5-3 (SEQ ID NO:8)) inhibitor, a classical ((β-, α-, γPKC) PKC inhibitor (βC2-4 (SEQ ID NO:10), and the scrambled control 1 peptide from Example 2 (SEQ ID NO:12) conjugated to TAT (SEQ ID NO:5).

[4] = tested on: primary rat retinal pigment epithelial cells (RPEs); details: cited from earlier work

For “[^14C]-YGXaaRKKRRQRRR [Radiolabeled TAT peptide]”, which “Topical distribution, Sclera” value ([1]; 5 instillations 1 hour apart, 3 mg total per eye, 15 minutes after last application) is on record?
Its value is 28.4 μ/g tissue.

What about the “Choroid, applied total dose” value ([1]; topical) of the same molecule?
Its value is 0.003%.

What about the “Retina, applied total dose” value ([1]; topical) of the same molecule?
The value was 0.001%.

And the “Sclera, applied total dose” value ([1]; topical)?
Its value is 0.134%.

And the “Vitreous, applied total dose” value ([1]; topical)?
The value was 0.006%.

Which new vessel growth (new vessel growth) does the source give for Cn1cc(C2=C(c3cn(C4CCN(Cc5ccccn5)CC4)c4ccccc34)C(=O)NC2=O)c2ccccc21 [LY317615] here?
Its new vessel growth is “prevent new vessel growth”.

Which Stability testing [2] does the source give for GQEVIRNGGYGRKKRRQRRR [linear bII] here?
Its Stability testing is “−”.

With “GKLFIMNGGYGRKKRRQRRR (GKLFIMNLSGYGRKKRRQRRR) [linear bI, a linear version of the peptide βIV5-3]” as the molecule, how does the “VEGF-induced vascular permeability in comparison to vehicle alone” value [3] read?
The value was “reduced vascular permeability”.

For GSLNPEWNETGGYGRKKRRQRRR [linear bC2-4], which Stability testing [2] is on record?
Its Stability testing is “+++”.

With GKLFIMNAGGYGRKKRRQRRR [Linear bI (6)] as the molecule, how does the Stability testing [2] read?
Its Stability testing is “++”.

For GKLFIMNADGYGRKKRRQRRR [Linear bI (4)], which Stability testing [2] is on record?
Its Stability testing is “++”.

Which results are given for CCCCCCCCCCCCCC(=O)O[C@@H]1[C@@H](C)[C@@]2(O)[C@@H](C=C(CO)C[C@]3(O)C(=O)C(C)=C[C@@H]23)[C@@H]2C(C)(C)[C@]12OC(C)=O [PMA]?
PKC-delta level in RPEs ([4]; exposure for 24 hours): significantly down regulated; Secretion of VEGF ([4]; normal or high glucose, or hypoxia, treatment for 24 hours): significantly reduced

Which Stability testing [2] does the source give for GKLFIMNLDGYGRKKRRQRRR [Linear bI (3)] here?
The Stability testing was “++”.

With “GEEVIRNISGYGRKKRRQRRR [bII linear analog]” as the molecule, how does the Stability testing [2] read?
Its Stability testing is “+++”.

Which Stability testing [2] does the source give for “GKLFIMNLSGYGRKKRRQRRR (GKLFIMNAGGYGRKKRRQRRR) [bI linear analog]” here?
The Stability testing was “++”.

Which Stability testing [2] does the source give for GKLFIMNLGYGRKKRRQRRR [Linear bI (5)] here?
The Stability testing was “+++”.
